Experimental data published in US20240117018A1.

Columns and labels:
Assay in all cases: cell-based or functional assay
[1] = target: HIV-1 Env pseudovirus 235-47 (HIV-1)
[2] = target: HIV-1 Env pseudovirus 3301.v1.c24 (HIV-1)
[3] = target: HIV-1 Env pseudovirus 3817.v2.c59 (HIV-1)
[4] = target: HIV-1 Env pseudovirus 6952.v1.c20 (HIV-1)
[5] = target: HIV-1 Env pseudovirus BJOX010000.06.2 (HIV-1)
[6] = target: HIV-1 Env pseudovirus CNE5 (HIV-1)
[7] = target: HIV-1 Env pseudovirus P1981_C5_3 (HIV-1)
[8] = target: HIV-1 Env pseudovirus R1166.c01 (HIV-1)
[9] = target: HIV-1 Env pseudovirus R3265.c06 (HIV-1)
[10] = target: HIV-1 Env pseudovirus T251-18 (HIV-1)
[11] = target: HIV-1 Env pseudovirus X1254_c3 (HIV-1)
[12] = target: Env of HIV-1 pseudovirus 6240_08_TA5_4622 (HIV-1)
[13] = target: Env of HIV-1 pseudovirus 6244_13_B5_4576 (HIV-1)
[14] = target: Env of HIV-1 pseudovirus 9004SS_A3_4 (HIV-1)
[15] = target: Env of HIV-1 pseudovirus CNE19 (HIV-1)
[16] = target: Env of HIV-1 pseudovirus CNE20 (HIV-1)
[17] = target: Env of HIV-1 pseudovirus CNE21 (HIV-1)
[18] = target: Env of HIV-1 pseudovirus Ce1176_A3 (HIV-1)
[19] = target: Env of HIV-1 pseudovirus Ce2010_F5 (HIV-1)
[20] = target: Env of HIV-1 pseudovirus Ce704809221_1B3 (HIV-1)
[21] = target: Env of HIV-1 pseudovirus Du422.1 (HIV-1)
[22] = target: Env of HIV-1 pseudovirus HIV-001428-2.42 (HIV-1)
[23] = target: Env of HIV-1 pseudovirus Q23.17 (HIV-1)
[24] = target: Env of HIV-1 pseudovirus WEAU_d15_410_787 (HIV-1)
[25] = target: Env of HIV-1 pseudovirus ZM109F.PB4 (HIV-1)
[26] = target: Env of HIV-1 pseudovirus ZM249M.PL1 (HIV-1)
[27] = target: HIV-1 Env pseudovirus 1012_11_TC21_3257 (HIV-1)
[28] = target: HIV-1 Env pseudovirus 249M B10 (HIV-1)
[29] = target: HIV-1 Env pseudovirus 6240_08_TA5_4622 (HIV-1)
[30] = target: HIV-1 Env pseudovirus 6244_13_B5_4576 (HIV-1)
[31] = target: HIV-1 Env pseudovirus 7030102001E5(Rev-) (HIV-1)
[32] = target: HIV-1 Env pseudovirus BF1266.431a (HIV-1)
[33] = target: HIV-1 Env pseudovirus Ce0682_E4 (HIV-1)
[34] = target: HIV-1 Env pseudovirus Q23.17 (HIV-1)
[35] = target: HIV-1 Env pseudovirus THRO4156.18 (HIV-1)
[36] = target: HIV-1 Env pseudovirus ZM135M.PL10a (HIV-1)

Substance 3BNC117 (antibody) has an IC50 (Titer in TZM.bl cells) [1] of 0.03 µg/mL, an IC80 (Titer in TZM.bl cells) [1] of 0.12 µg/mL and an IC50 (Titer in TZM.bl cells) [2] of 0.01 µg/mL. It also gave an IC80 (Titer in TZM.bl cells) [2] of 0.05 µg/mL, an IC50 (Titer in TZM.bl cells) [3] of 0.15 µg/mL and an IC80 (Titer in TZM.bl cells) [3] of 0.52 µg/mL. It also gave an IC50 (Titer in TZM.bl cells) [4] of 0.15 µg/mL, an IC80 (Titer in TZM.bl cells) [4] of 0.75 µg/mL and an IC50 (Titer in TZM.bl cells) [5] of 1.58 µg/mL. The IC80 (Titer in TZM.bl cells) [5] was 10.4 µg/mL, the IC50 (Titer in TZM.bl cells) [6] was 0.28 µg/mL and the IC80 (Titer in TZM.bl cells) [6] was 1.28 µg/mL. It also gave an IC50 (Titer in TZM.bl cells) [7] of 0.74 µg/mL, an IC80 (Titer in TZM.bl cells) [7] of 3.62 µg/mL and an IC50 (Titer in TZM.bl cells) [8] of 0.17 µg/mL. The IC80 (Titer in TZM.bl cells) [8] was 0.64 µg/mL, the IC50 (Titer in TZM.bl cells) [9] was 0.48 µg/mL and the IC80 (Titer in TZM.bl cells) [9] was 13 µg/mL. For the same substance, the IC50 (Titer in TZM.bl cells) [10] was 0.26 µg/mL, the IC80 (Titer in TZM.bl cells) [10] was 0.82 µg/mL and the IC50 (Titer in TZM.bl cells) [11] was 0.08 µg/mL. It also gave an IC80 (Titer in TZM.bl cells) [11] of 0.27 µg/mL.
8ANC195 (antibody) was tested, and the IC50 (Titer in TZM.bl cells) [1] was over 50 µg/mL, the IC80 (Titer in TZM.bl cells) [1] was over 50 µg/mL and the IC50 (Titer in TZM.bl cells) [2] was over 50 µg/mL. It also gave an IC80 (Titer in TZM.bl cells) [2] of over 50 µg/mL, an IC50 (Titer in TZM.bl cells) [3] of 1 µg/mL and an IC80 (Titer in TZM.bl cells) [3] of 5.3 µg/mL. It also gave an IC50 (Titer in TZM.bl cells) [4] of 1.38 µg/mL, an IC80 (Titer in TZM.bl cells) [4] of 7.22 µg/mL and an IC50 (Titer in TZM.bl cells) [5] of 0.85 µg/mL. For the same substance, the IC80 (Titer in TZM.bl cells) [5] was 5.84 µg/mL, the IC50 (Titer in TZM.bl cells) [6] was 2.12 µg/mL and the IC80 (Titer in TZM.bl cells) [6] was 9.67 µg/mL. It also gave an IC50 (Titer in TZM.bl cells) [7] of 0.14 µg/mL, an IC80 (Titer in TZM.bl cells) [7] of 1.15 µg/mL and an IC50 (Titer in TZM.bl cells) [8] of 4.83 µg/mL. The IC80 (Titer in TZM.bl cells) [8] was 4.83 µg/mL, the IC50 (Titer in TZM.bl cells) [9] was 50 µg/mL and the IC80 (Titer in TZM.bl cells) [9] was over 50 µg/mL. It also gave an IC50 (Titer in TZM.bl cells) [10] of 1.51 µg/mL, an IC80 (Titer in TZM.bl cells) [10] of 1.51 µg/mL and an IC50 (Titer in TZM.bl cells) [11] of 6.95 µg/mL. The IC80 (Titer in TZM.bl cells) [11] was 6.95 µg/mL.
PG16 (antibody) gave an IC50 [12] of over 50 µg/mL, an IC80 [12] of over 50 µg/mL and an IC50 [13] of over 50 µg/mL. It also gave an IC80 [13] of over 50 µg/mL, an IC50 [14] of 0.02 µg/mL and an IC80 [14] of 0.111 µg/mL. The IC50 [15] was 0.024 µg/mL, the IC80 [15] was 3.07 µg/mL and the IC50 [16] was 3.63 µg/mL. For the same substance, the IC80 [16] was 47.2 µg/mL, the IC50 [17] was 7 ng/mL and the IC80 [17] was 0.026 µg/mL. The IC50 [18] was 3 ng/mL, the IC80 [18] was 0.011 µg/mL and the IC50 [19] was over 50 µg/mL. For the same substance, the IC80 [19] was over 50 µg/mL, the IC50 [20] was 0.021 µg/mL and the IC80 [20] was 0.116 µg/mL. For the same substance, the IC50 [21] was 0.261 µg/mL, the IC80 [21] was 33.8 µg/mL and the IC50 [22] was 0.039 µg/mL. The IC80 [22] was 0.25 µg/mL, the IC50 [23] was 8 ng/mL and the IC80 [23] was 0.043 µg/mL. For the same substance, the IC50 [24] was 0.435 µg/mL, the IC80 [24] was over 50 µg/mL and the IC50 [25] was 7.03 µg/mL. The IC80 [25] was over 50 µg/mL, the IC50 [26] was 0.127 µg/mL and the IC80 [26] was 18.1 µg/mL.
In the case of VRC01 (antibody), the IC50 (Titer in TZM.bl cells) [27] is reported as 0.12 µg/mL, the IC80 (Titer in TZM.bl cells) [27] is reported as 0.32 µg/mL and the IC50 (Titer in TZM.bl cells) [1] is reported as 0.04 µg/mL. The IC80 (Titer in TZM.bl cells) [1] was 0.17 µg/mL, the IC50 (Titer in TZM.bl cells) [28] was 0.13 µg/mL and the IC80 (Titer in TZM.bl cells) [28] was 0.46 µg/mL. It also gave an IC50 (Titer in TZM.bl cells) [2] of 0.14 µg/mL, an IC80 (Titer in TZM.bl cells) [2] of 0.32 µg/mL and an IC50 (Titer in TZM.bl cells) [3] of over 50 µg/mL. It also gave an IC80 (Titer in TZM.bl cells) [3] of over 50 µg/mL, an IC50 (Titer in TZM.bl cells) [29] of 0.61 µg/mL and an IC80 (Titer in TZM.bl cells) [29] of 1.82 µg/mL. For the same substance, the IC50 (Titer in TZM.bl cells) [30] was 0.21 µg/mL, the IC80 (Titer in TZM.bl cells) [30] was 0.53 µg/mL and the IC50 (Titer in TZM.bl cells) [4] was 0.04 µg/mL. It also gave an IC80 (Titer in TZM.bl cells) [4] of 0.12 µg/mL, an IC50 (Titer in TZM.bl cells) [31] of 0.54 µg/mL and an IC80 (Titer in TZM.bl cells) [31] of 2.08 µg/mL. It also gave an IC50 (Titer in TZM.bl cells) [32] of 0.07 µg/mL, an IC80 (Titer in TZM.bl cells) [32] of 0.23 µg/mL and an IC50 (Titer in TZM.bl cells) [6] of 0.37 µg/mL. It also gave an IC80 (Titer in TZM.bl cells) [6] of 1.1 µg/mL, an IC50 (Titer in TZM.bl cells) [33] of 0.08 µg/mL and an IC80 (Titer in TZM.bl cells) [33] of 0.48 µg/mL. The IC50 (Titer in TZM.bl cells) [7] was 0.46 µg/mL, the IC80 (Titer in TZM.bl cells) [7] was 1.26 µg/mL and the IC50 (Titer in TZM.bl cells) [34] was 0.09 µg/mL. For the same substance, the IC80 (Titer in TZM.bl cells) [34] was 0.261 µg/mL, the IC50 (Titer in TZM.bl cells) [8] was 1.7 µg/mL and the IC80 (Titer in TZM.bl cells) [8] was 4.58 µg/mL. The IC50 (Titer in TZM.bl cells) [9] was 0.45 µg/mL, the IC80 (Titer in TZM.bl cells) [9] was 1.88 µg/mL and the IC80 (Titer in TZM.bl cells) [10] was 11.2 µg/mL. The IC80 (Titer in TZM.bl cells) [35] was 23 µg/mL, the IC50 (Titer in TZM.bl cells) [11] was 0.07 µg/mL and the IC80 (Titer in TZM.bl cells) [11] was 0.19 µg/mL. It also gave an IC50 (Titer in TZM.bl cells) [36] of 0.35 µg/mL and an IC80 (Titer in TZM.bl cells) [36] of 2.7 µg/mL.
VRC07 (antibody) showed an IC50 (Titer in TZM.bl cells) [1] of 0.024 µg/mL, an IC80 (Titer in TZM.bl cells) [1] of 0.075 µg/mL and an IC50 (Titer in TZM.bl cells) [2] of 0.027 µg/mL. The IC80 (Titer in TZM.bl cells) [2] was 0.073 µg/mL, the IC50 (Titer in TZM.bl cells) [3] was 1.9 µg/mL and the IC80 (Titer in TZM.bl cells) [3] was 19.8 µg/mL. It also gave an IC50 (Titer in TZM.bl cells) [4] of 0.064 µg/mL, an IC80 (Titer in TZM.bl cells) [4] of 0.181 µg/mL and an IC50 (Titer in TZM.bl cells) [5] of 1.06 µg/mL. It also gave an IC80 (Titer in TZM.bl cells) [5] of 10 µg/mL, an IC50 (Titer in TZM.bl cells) [6] of 0.138 µg/mL and an IC80 (Titer in TZM.bl cells) [6] of 0.524 µg/mL. For the same substance, the IC50 (Titer in TZM.bl cells) [7] was 0.213 µg/mL, the IC80 (Titer in TZM.bl cells) [7] was 0.609 µg/mL and the IC50 (Titer in TZM.bl cells) [8] was 0.81 µg/mL. The IC80 (Titer in TZM.bl cells) [8] was 3.17 µg/mL, the IC50 (Titer in TZM.bl cells) [10] was 1.32 µg/mL and the IC80 (Titer in TZM.bl cells) [10] was 6.49 µg/mL. For the same substance, the IC50 (Titer in TZM.bl cells) [11] was 0.041 µg/mL and the IC80 (Titer in TZM.bl cells) [11] was 0.2 µg/mL.
